Data: the Immune Epitope Database (IEDB)

What was measured:
HLA-A*02:01 = experiment: IEDB peptide-MHC binding, purified MHC/direct/fluorescence; filed as Kd, often an IC50 or EC50 that approximates it; ≥ and ≤ were set here for values at or beyond the usual limits of such assays; details: source organism: Giardia lamblia ATCC 50803
HLA-A*31:01 [1] = experiment: as above
HLA-B*44:02 = experiment: as above; details: source organism: Giardia lamblia ATCC 50803
HLA-B*07:02 = experiment: as above
HLA-A*11:01 [2] = experiment: as above
HLA-A*24:02 = experiment: as above; details: source organism: Giardia lamblia ATCC 50803
HLA-A*01:01 = experiment: as above; details: source organism: Giardia lamblia ATCC 50803
HLA-A*03:01 [3] = experiment: as above; details: source organism: Giardia lamblia ATCC 50803
HLA-B*46:01 = experiment: as above
HLA-B*15:01 = experiment: as above; details: source organism: Giardia lamblia ATCC 50803
HLA-B*40:01 = experiment: as above
HLA-B*58:01 = experiment: as above
HLA-A*02:16 = experiment: as above; details: source organism: Giardia lamblia ATCC 50803
HLA-B*08:02 [4] = experiment: as above
HLA-A*02:12 = experiment: as above; details: source organism: Giardia lamblia ATCC 50803
HLA-A*02:06 = experiment: as above; details: source organism: Giardia lamblia ATCC 50803
HLA-B*18:01 = experiment: as above; details: source organism: Giardia lamblia ATCC 50803
HLA-B*27:05 = experiment: as above
HLA-A*02:11 = experiment: as above; details: source organism: Giardia lamblia ATCC 50803
HLA-A*02:03 = experiment: IEDB peptide-MHC binding, purified MHC/competitive/fluorescence; filed as Kd, often an IC50 or EC50 that approximates it; ≥ and ≤ were set here for values at or beyond the usual limits of such assays; details: source organism: Giardia lamblia ATCC 50803
HLA-A*31:01 [5] = experiment: as above; details: source organism: Human immunodeficiency virus 1
HLA-A*11:01 [6] = experiment: as above; details: source organism: Human immunodeficiency virus 1
HLA-A*03:01 [7] = experiment: as above; details: source organism: Human immunodeficiency virus 1
HLA-A*30:01 = experiment: as above; details: source organism: Human immunodeficiency virus 1
HLA-A*26:01 = experiment: as above; details: source organism: Human immunodeficiency virus 1
HLA-B*08:02 [8] = experiment: as above; details: source organism: Human immunodeficiency virus 1
HLA-A*26:03 = experiment: as above; details: source organism: Human immunodeficiency virus 1
HLA-C*01:02 = experiment: IEDB peptide-MHC binding, purified MHC/direct/fluorescence; filed as Kd, often an IC50 or EC50 that approximates it; ≥ and ≤ were set here for values at or beyond the usual limits of such assays; details: source organism: Homo sapiens
HLA-B*08:03 = experiment: as above; details: source organism: Mycobacterium tuberculosis str. Haarlem
HLA-B*48:01 = experiment: as above; details: source organism: Mycobacterium tuberculosis
HLA-A*68:02 = experiment: as above; details: source organism: Mycobacterium tuberculosis
HLA-B*08:01 = experiment: as above; details: source organism: Mycobacterium tuberculosis str. Haarlem
HLA-B*57:01 = experiment: as above; details: source organism: Mycobacterium tuberculosis
[9] = source organism: Giardia lamblia ATCC 50803
[10] = source organism: Mycobacterium tuberculosis

Q: Which results are given for HCIDKTPGL?
A: Kd (HLA-A*02:01): 0.319 µM; Kd (HLA-A*31:01 [1]; [9]): ≥ 20 µM; Kd (HLA-B*44:02): ≥ 20 µM; Kd (HLA-B*07:02; [9]): ≥ 20 µM; Kd (HLA-A*11:01 [2]; [9]): ≥ 20 µM; Kd (HLA-A*24:02): ≥ 20 µM; Kd (HLA-A*01:01): ≥ 20 µM; Kd (HLA-A*03:01 [3]): ≥ 20 µM; Kd (HLA-B*46:01; [9]): ≥ 20 µM; Kd (HLA-B*15:01): ≥ 20 µM; Kd (HLA-B*40:01; [9]): ≥ 20 µM; Kd (HLA-B*58:01; [9]): ≥ 20 µM; Kd (HLA-A*02:16): 0.39 µM; Kd (HLA-B*08:02 [4]; [9]): ≥ 20 µM; Kd (HLA-A*02:12): 0.26 µM; Kd (HLA-A*02:06): 0.106 µM; Kd (HLA-B*18:01): ≥ 20 µM; Kd (HLA-B*27:05; [9]): ≥ 20 µM; Kd (HLA-A*02:11): 0.914 µM; Kd (HLA-A*02:03): 2.48 µM

Q: Which results are given for IATLYCVHQR?
A: Kd (HLA-A*31:01 [5]): 0.761 µM; Kd (HLA-A*11:01 [6]): 5.82 µM; Kd (HLA-A*03:01 [7]): ≥ 20 µM; Kd (HLA-A*30:01): 5.99 µM; Kd (HLA-A*26:01): ≥ 20 µM; Kd (HLA-B*08:02 [8]): ≥ 20 µM; Kd (HLA-A*26:03): ≥ 20 µM

Q: PLPDRSLPAL was tested. Which Kd (HLA-C*01:02) did it give?
A: ≤ 0.0001 µM

Q: TLLESFLFY was tested. Which Kd (HLA-B*08:03) did it give?
A: ≥ 20 µM

Q: What about the Kd (HLA-A*31:01 [1]; [10]) of the same sequence?
A: ≥ 20 µM

Q: And the Kd (HLA-B*07:02; [10])?
A: ≥ 20 µM

Q: What about the Kd (HLA-A*11:01 [2]; [10]) of the same sequence?
A: 0.01 µM

Q: What about the Kd (HLA-B*48:01) of the same sequence?
A: ≥ 20 µM

Q: What about the Kd (HLA-B*46:01; [10]) of the same sequence?
A: ≥ 20 µM

Q: And the Kd (HLA-B*40:01; [10])?
A: ≥ 20 µM

Q: What about the Kd (HLA-B*58:01; [10]) of the same sequence?
A: ≥ 20 µM

Q: What about the Kd (HLA-A*68:02) of the same sequence?
A: ≥ 20 µM

Q: What about the Kd (HLA-B*08:02 [4]; source organism: Mycobacterium tuberculosis str. Haarlem) of the same sequence?
A: ≥ 20 µM

Q: And the Kd (HLA-B*27:05; [10])?
A: ≥ 20 µM

Q: And the Kd (HLA-B*08:01)?
A: ≥ 20 µM

Q: What about the Kd (HLA-B*57:01) of the same sequence?
A: ≥ 20 µM
